Test results from PMC5483177 (Cell reports, 2016).
Residue numbers refer to the chain shown, from its start. Names and notes keep the numbering of the source. Read-outs that look alike come from different tables or passages of the source.

B1: CPS-6(H148A) (residues 63-305), His-tagged (enzyme, C. elegans, UniProt Q95NM6 63-305, looked up)
chain: PSRSAEIMKHGYPGFTNVRTYEDFVLSYDYKTRTAHWVCEHLTPERLKHAEGVDRKLCEFKPDITFPQKFLSQNTDYKCSGFDRGALAAAGNHRKSQLAVDQTFYLSNMSPQVGRGFNRDKWNDLEMHCRRVAKKMINSYIITGPLYLPKLEGDGKKYIKYQVIGDNNVAVPTHFFKVALFEVTPGKFELESYILPNAVIEDTVEISKFHVPLDAVERSAGLEIFARLDPKSIVKENGAKKGG
B2: WAH-1 (residues 214 to 700), His-tagged (domain or fragment, C. elegans, UniProt Q9U229 214-700, looked up)
chain: SEQQSMKPSESTEENTTTTSADGLLHCEYVIIGSGTAAYYASLSIRAKQAEAKVLMIGEEPELPYNRPPLSKELWWYGDETSATKLAYTPLSGKKRDIFYEVDGFFVSPEDLPKAVHGGVALLRGRKAVKICEEDKKVILEDGTTIGYDKLLIATGVRPKKEQVFEEASEEAKQKITYFHYPADFKRVERGLADKSVQKVTIIGNGLLASELSYSIKRKYGENVEVHQVFEEKYPAEDILPEHIAQKSIEAIRKGGVDVRAEQKVEGVRKCCKNVVLKLSDGSELRTDLVVVATGEEPNSEIIEASGLKIDEKLGGVRADKCLKVGENVWAAGAIATFEDGVLGARRVSSWENAQISGRLAGENMATAAADGKSEGKAFWYQPSFFTKFAPHLHINAIGKCDSSLETVSVHAEPDKDTPLEKAVVFYKSKEDGSIVGVLLLNVFGPSLDVARRIIDDRKKVDEYKEIAKLFPLYDPVKSDEDDAKSA
B3: wild-type CPS-6 (residues 63-305), His-tagged (enzyme, C. elegans, UniProt Q95NM6 63-305, looked up)
chain: B1 chain with A86H

Experiments:
[1] = target: the molecule itself; assay: SEC
[2] = target: B2; assay: other fluorescence titration
[3] = target: the molecule itself; assay: SEC; remark: listed apart in the source
[4] = target: B1; assay: other fluorescence titration

Row | Binder | stoichiometry N [1] | Kd [2] [nM] | stoichiometry N [3] | stoichiometry N [4]
1 | B1 | 2 | 69.8 ± 2.8 | – | –
2 | B2 | – | – | 2 | 1
3 | B3 | 2 | – | – | –
